Experimental data as given in PMC5435981.

Biological target: APOBEC3A E72A (A3A-E72A) (Homo sapiens, UniProt P31941 1-199, E72A)
Test: ITC

Sequence of APOBEC3A E72A (A3A-E72A) (P31941 whole entry E72A): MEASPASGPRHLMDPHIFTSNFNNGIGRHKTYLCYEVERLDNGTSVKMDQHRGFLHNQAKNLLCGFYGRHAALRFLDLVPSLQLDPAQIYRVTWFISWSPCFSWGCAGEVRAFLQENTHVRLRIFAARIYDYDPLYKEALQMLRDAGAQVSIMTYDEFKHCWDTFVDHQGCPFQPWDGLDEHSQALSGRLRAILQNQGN

AATTCAAAA (ssDNA) [A2TTCA4]
Kd: 17 ± 6 µM
